This note sets out measurements from article PMC3894356.

In test [1] the target is human tACEΔ36-g13sol (C-domain of angiotensin-I-converting enzyme) (human).
In test [2] the target is human C-domain ACE (tACEΔ36-g13sol) R522K (human).
Test [3] addresses human C-domain ACE (tACEΔ36-g13sol) R186H (human).
The target in test [4] is human C-domain ACE (tACEΔ36-g13sol) R522Q (human).

B1: Angiotensin I (Asp-Arg-Val-Tyr-Ile-His-Pro-Phe-His-Leu) (peptide)
peptide: DRVYIHPFHL
In the case of B1, the Km of angiotensin I cleavage, ITC kinetic assay (progress curve), 37 °C, 0 mM NaCl, 50 mM TAPSO pH 7.5, 10 μM ZnSO4 in test [1] was determined as 0.049 mM; in test [2], 0.13 mM; in test [3], 0.085 mM; in test [4], 0.092 mM. The Km of angiotensin I cleavage, ITC kinetic assay (progress curve), 37 °C, 20 mM NaCl, 50 mM TAPSO pH 7.5, 10 μM ZnSO4 is 0.036 mM in test [1], 0.119 mM in test [2], 0.095 mM in test [3] and 0.077 mM in test [4].
